Measurements taken from US20160327558A1.
Primed or numbered codes have the meaning given here. The star is where a group is joined. AOMK(3) = acyloxymethyl ketone at C-terminal Arg; Biotin = O=C1N[C@H]2[C@H](CS[C@H]2CCCCC(=O)*)N1

Key:
[1] = target: active endogenous MALT1 (stimulated Jurkat T cells, stimulated primary human PBMCs and T cells, ABC DLBCL cells) (human) (UniProt Q9UDY8); assay: ELISA-type assay on streptavidin-coated plates, 2×10^6 Jurkat T cells
[2] = target: active endogenous MALT1 (stimulated Jurkat T cells, stimulated primary human PBMCs and T cells, ABC DLBCL cells) (human) (UniProt Q9UDY8); assay: probe 7 pulldown with streptavidin beads; supernatant tested with probe 6

- probe concentration sufficient to obtain a robust increase in active MALT1 [1]: < 10 nM
- probe concentration sufficient to completely remove active MALT1 from the extracts [2]: 100 nM
Binder: Ac-K(Biotin)LRSR-{AOMK(3)} [probe 7 (biotin-coupled; Ac-Lys(biotin)-LRSR-AOMK)]
